Results as given in publication PMC13246001, “Membrane binding controls the ATPase cycle and localization of MinD in Bacillus subtilis” (eLife, 2026).

Legend:
[1] = molecular target: His-MinD (B. subtilis MinD, N-terminally His-tagged) (B. subtilis) (UniProt Q01464)
[2] = substrate: Nc1ncnc2c1ncn2[C@@H]1O[C@H](COP(=O)(O)OP(=O)(O)OP(=O)(O)O)[C@@H](O)[C@H]1O; assay: EnzChek phosphate release assay; assay type: biochemical, Bacillus subtilis; conditions: 10 µM MinD, E. coli total lipid liposomes 0.2 mg/ml, Mg2+, 37 °C, HEPES-KOH pH 7.2 protein/liposome buffer
[3] = molecular target: the molecule itself; assay: SEC; Superdex200 Increase 10/300 GL, 0.75 ml/min, buffer C (50 mM HEPES-KOH, 150 mM KCl, 10% glycerol, 0.1 mM EDTA, pH 7.2) with 0.4 mM TCEP and 0.2 mM Mg2+-ADP; column calibrated with a gel filtration standard

His-PDZ (soluble C-terminal PDZ domain of B. subtilis MinJ with N-terminal His-tag) (from UniProt O34375 1-397) (domain or fragment)
relative ATPase activity (EnzChek phosphate release) of 6 µM His-MinD in the presence of 1, 3 and 5 µM His-PDZ, 0.2 mg/ml liposomes, 2 mM Mg2+-ATP; His-MinD alone = 1; highest value at 3 µM (relative activity) [1]: 1.37

B1: His-MinD (Bacillus subtilis subsp. subtilis str. 168) (protein)
chain: MGEAIVITSGKGGVGKTTTSANLGTALAILGKRVCLVDTDIGLRNLDVVMGLENRIIYDLVDVVEGRCKMHQALVKDKRFDDLLYLMPAAQTSDKTAVAPEQIKNMVQELKQEFDYVIIDCPAGIEQGYKNAVSGADKAIVVTTPEISAVRDADRIIGLLEQEENIEPPRLVVNRIRNHLMKNGDTMDIDEIVQHLSIDLLGIVADDDEVIKASNHGEPIAMDPKNRASIAYRNIARRILGESVPLQVLEEQNKGMMAKIKSFFGVRS
notes: full-length MinD, N-terminal His-tag kept (pET-28a NdeI/XhoI, plasmid NAP013), expressed in E. coli BL21(DE3)pLysS; monomer in ADP, dimerizes in ATPase cycle
Km [2]: 0.173 mM | kcat [2]: 36.27 h⁻¹

B2: His-MinD-D40A (enzyme, B. subtilis, UniProt Q01464 1-268, looked up)
chain: MGEAIVITSGKGGVGKTTTSANLGTALAILGKRVCLVDTAIGLRNLDVVMGLENRIIYDLVDVVEGRCKMHQALVKDKRFDDLLYLMPAAQTSDKTAVAPEQIKNMVQELKQEFDYVIIDCPAGIEQGYKNAVSGADKAIVVTTPEISAVRDADRIIGLLEQEENIEPPRLVVNRIRNHLMKNGDTMDIDEIVQHLSIDLLGIVADDDEVIKASNHGEPIAMDPKNRASIAYRNIARRILGESVPLQVLEEQNKGMMAKIKSFFGVRS
notes: MinD of Bacillus subtilis 168 with D40A, made by site-directed mutagenesis of plasmid NAP013 (pET-28a-minD); Same construct as m1 but for the mutation; also called locked dimer; pET-28a-minD-D40A; source: E. coli BL21(DE3)/pLysS, purified (Ni-NTA, SEC) with Mg2+-ADP in the buffers; not shown: His-tag, N-terminal, kept
binding result [3]: binds
